B1: ZNF207 motif MUT (dsDNA)
DNA 1: TTTTAAACACGCGTGTGTTAG
DNA 2: CTAACACACGCGTGTTTAAAA
B2: ZNF207 motif WT (dsDNA)
DNA 1: TTTGAAACACTCTTTTTGTAG
DNA 2: CTACAAAAAGAGTGTTTCAAA

Target: ZNF207 isoform C (human, UniProt O43670-4 1-494)
Experiment: EMSA; 100 ng protein, 3 ng probe, 1 ug poly(dI-dC), 10 mM MgCl2; 10 mM HEPES pH 7.5, 10 mM KCl, 10 mM MgCl2, 1 mM DTT, 1 mM EDTA, 10% glycerol, 1 ug poly(dI-dC) in 10 ul, 10 min at room temperature; 5% native PAGE in 0.5x TBE
Conditions: protein: commercial; label: 5' biotin on sense strand; duplex of annealed sense and reverse strands

Chain of ZNF207 isoform C (O43670 other isoform, or with tags, fused parts or gaps): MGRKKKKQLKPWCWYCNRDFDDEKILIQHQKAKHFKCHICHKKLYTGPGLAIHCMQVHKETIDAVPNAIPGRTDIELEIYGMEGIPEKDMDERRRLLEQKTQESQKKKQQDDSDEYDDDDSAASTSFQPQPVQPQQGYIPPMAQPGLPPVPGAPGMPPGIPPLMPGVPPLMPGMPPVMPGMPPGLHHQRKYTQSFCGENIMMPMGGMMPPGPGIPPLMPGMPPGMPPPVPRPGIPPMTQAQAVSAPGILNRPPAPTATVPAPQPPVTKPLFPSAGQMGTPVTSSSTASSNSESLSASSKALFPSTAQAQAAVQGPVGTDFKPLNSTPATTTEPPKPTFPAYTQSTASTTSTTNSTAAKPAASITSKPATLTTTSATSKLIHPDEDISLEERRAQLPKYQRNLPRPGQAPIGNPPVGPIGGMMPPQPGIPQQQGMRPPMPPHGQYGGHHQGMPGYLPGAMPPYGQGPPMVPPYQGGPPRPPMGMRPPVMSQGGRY

| Binder | binding result |
| --- | --- |
| B1 | no binding |
| B2 | binds |

— publication PMC6197280, “A distinct isoform of ZNF207 controls self-renewal and pluripotency of human embryonic stem cells”
